Measured values published in publication PMC11601584, “The RNA receptor RIG-I binding synthetic oligodeoxynucleotide promotes pneumonia survival”.

Columns and labels:
[1] = molecular target: T1, rhRIG-I (236-925), CARD-less (Homo sapiens, UniProt O95786 236-925); test: EMSA; ODN stock 2.5 uM, protein 0-32 uM, on ice; FP: 20 mM Hepes pH 7.5, 150 mM NaCl, 2 mM TCEP, 4 mM MgCl2, 5% glycerol, 25 C, 2.5 nM labeled oligo; EMSA: 30 min on ice, 6% native gel, 0.5x TBE; settings: protein: recombinant; tags: N-terminal His-tag, removed by TEV; 25-mer described as palindromic; partly self-complementary
T1 sequence: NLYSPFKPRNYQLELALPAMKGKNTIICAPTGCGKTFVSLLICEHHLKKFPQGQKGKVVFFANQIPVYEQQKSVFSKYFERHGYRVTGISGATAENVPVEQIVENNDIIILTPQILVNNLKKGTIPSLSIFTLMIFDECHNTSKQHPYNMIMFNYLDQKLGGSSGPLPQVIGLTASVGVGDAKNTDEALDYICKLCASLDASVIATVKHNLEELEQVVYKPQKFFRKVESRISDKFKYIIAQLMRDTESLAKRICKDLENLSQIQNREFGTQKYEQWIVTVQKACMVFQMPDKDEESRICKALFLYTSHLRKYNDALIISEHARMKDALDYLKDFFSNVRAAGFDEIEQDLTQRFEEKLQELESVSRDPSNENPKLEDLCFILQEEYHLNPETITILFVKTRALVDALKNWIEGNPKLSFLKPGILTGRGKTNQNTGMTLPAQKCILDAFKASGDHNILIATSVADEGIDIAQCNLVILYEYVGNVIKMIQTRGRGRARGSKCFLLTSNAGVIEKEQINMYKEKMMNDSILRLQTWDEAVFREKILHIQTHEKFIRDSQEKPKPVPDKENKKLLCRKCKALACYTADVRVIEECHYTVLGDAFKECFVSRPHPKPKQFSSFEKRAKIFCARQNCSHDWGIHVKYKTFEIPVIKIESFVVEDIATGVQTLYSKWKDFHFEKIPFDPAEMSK

[2] = molecular target: T1, rhRIG-I (236-925), CARD-less; test: fluorescence anisotropy; no nucleotide; 4 mM MgCl2; affinity similar to RNA, Kd only in figure; FP: 20 mM Hepes pH 7.5, 150 mM NaCl, 2 mM TCEP, 4 mM MgCl2, 5% glycerol, 25 C, 2.5 nM labeled oligo; EMSA: 30 min on ice, 6% native gel, 0.5x TBE; settings: protein: recombinant; tags: N-terminal His-tag, removed by TEV; label: 5' FAM; 25-mer described as palindromic; partly self-complementary
[3] = molecular target: T1, rhRIG-I (236-925), CARD-less; test: fluorescence anisotropy; no nucleotide; 4 mM MgCl2; Kd only in figure; FP: 20 mM Hepes pH 7.5, 150 mM NaCl, 2 mM TCEP, 4 mM MgCl2, 5% glycerol, 25 C, 2.5 nM labeled oligo; EMSA: 30 min on ice, 6% native gel, 0.5x TBE; settings: protein: recombinant; tags: N-terminal His-tag, removed by TEV; label: 5' FAM on strand 1; blunt

TCGTCGTCGTTCGAACGACGTTGAT (ssDNA, complete phosphorothioate backbone) [ODN M362, biotinylated]: binds [1].

TCGTCGTCGTTCGAACGACGTTGAT (ssDNA, complete phosphorothioate backbone) [ODN M362, FAM]: binds [2].

B1: 12-mer 5'ppp dsRNA (dsRNA)
RNA 1: CAUGUGGAGCCC
RNA 2: GGGCUCCACAUG
modifications: 5' triphosphate on strand 2
B1: binds [3].
